Reference: publication PMC11808413 (FEBS letters, 2024)
No end group written: not given here.

Tests used:
[1] = biological target: the molecule itself; assay: non-reducing gel (disulfide-linked oligomers); air-oxidized MBP-tagged LTO1 alone (Fig. 3, lane 2)
[2] = biological target: the molecule itself; assay: non-reducing SDS-urea-PAGE (disulfide-linked oligomers); 5 uM desalted MBP-tagged lumenal segment, air-oxidized or with 2 mM diamide or H2O2 for 30 minutes at room temperature, non-reducing 8 % SDS-urea-PAGE; oxidants raise the share of dimers, and higher order oligomers appear for the wild type

| Protein | binding result [1] | binding result [2] |
| --- | --- | --- |
| MBP-tagged lumenal segment of Arabidopsis thaliana LTO1 (AA 251-376) (domain or fragment, UniProt Q8L540 251-376, looked up) SRSGDIELPYFRTEISSSSSPYAIALAKHLNSIGAKMYGAFWCSHCLEQKEMFGREAAKELNYVECFPDGYKKGTKILKACADAAIEGFPTWIINDKVLSGEIELAELAEMTGFSLDQANETNQLQ | binds | – |
| AQLIDTVHNLFIGVGVGLPSTVMECGDMIYRSTLPKSNGLTITA (domain or fragment, UniProt Q9S713 46-89, looked up, also: MBP-tagged) [MBP-tagged lumenal segment of Arabidopsis thaliana STN7 (AA 46-89), C65S] | – | binds |
| AQLIDTVHNLFIGVGVGLPCTVMESGDMIYRSTLPKSNGLTITA (domain or fragment, UniProt Q9S713 46-89, looked up, also: MBP-tagged) [MBP-tagged lumenal segment of Arabidopsis thaliana STN7 (AA 46-89), C70S] | – | binds |
